Laboratory results published in the supplement of paper PMC9112550, “Optimization of the antimicrobial peptide Bac7 by deep mutational scanning” (BMC Biology, 2022).

Test system: Escherichia coli TOP10
Assay: shrunken log2 fold change of peptide-encoding DNA abundance (4.5 h post-induction vs induction); higher = less antimicrobial activity (less host growth inhibition)
Details: time post-induction: 4.5 h; library: site-saturation at positions 5, 18, 19, 20
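Note: peptides expressed intracellularly from a pBAD plasmid library in pooled LB shake-flask culture, induced with 0.3% L-arabinose, DNA abundance read by NGS, three biological replicates, DESeq2 with apeglm shrinkage.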

RRIRSRPPRLPRPRPRPEWWPRP
shrunken log2 fold change: 0.0594

RRIRCRPPRLPRPRPRPYVWPRP
shrunken log2 fold change: -0.369

RRIRFRPPRLPRPRPRPWWMPRP
shrunken log2 fold change: -0.168

RRIRGRPPRLPRPRPRPCTHPRP
shrunken log2 fold change: -0.0414

RRIRQRPPRLPRPRPRPWHCPRP
shrunken log2 fold change: -0.0682

RRIRQRPPRLPRPRPRPLELPRP
shrunken log2 fold change: 0.0289

RRIRARPPRLPRPRPRPMWQPRP
shrunken log2 fold change: -0.00908

RRIRDRPPRLPRPRPRPENHPRP
shrunken log2 fold change: -0.0926

RRIRARPPRLPRPRPRPRKCPRP
shrunken log2 fold change: 0.154

RRIRWRPPRLPRPRPRPGRQPRP
shrunken log2 fold change: -0.00663

RRIRIRPPRLPRPRPRPLGWPRP
shrunken log2 fold change: 0.339

RRIRARPPRLPRPRPRPKQKPRP
shrunken log2 fold change: 0.529

RRIRTRPPRLPRPRPRPGAMPRP
shrunken log2 fold change: 0.144

RRIRRRPPRLPRPRPRPLLLPRP
shrunken log2 fold change: 0.0522

RRIRWRPPRLPRPRPRPVTVPRP
shrunken log2 fold change: -0.194

RRIRWRPPRLPRPRPRPFQRPRP
shrunken log2 fold change: 0.00938

RRIRERPPRLPRPRPRPMFTPRP
shrunken log2 fold change: -0.278

RRIRRRPPRLPRPRPRPKWKPRP
shrunken log2 fold change: -0.0205

RRIRTRPPRLPRPRPRPKGDPRP
shrunken log2 fold change: 0.00199

RRIRDRPPRLPRPRPRPNGDPRP
shrunken log2 fold change: -0.00931

RRIRHRPPRLPRPRPRPPFNPRP
shrunken log2 fold change: -0.256

RRIRVRPPRLPRPRPRPEGFPRP
shrunken log2 fold change: 0.0396

RRIRTRPPRLPRPRPRPWLGPRP
shrunken log2 fold change: -0.00306

RRIRDRPPRLPRPRPRPHTLPRP
shrunken log2 fold change: -0.196

RRIRMRPPRLPRPRPRPVPRPRP
shrunken log2 fold change: 0.606

RRIRGRPPRLPRPRPRPKAYPRP
shrunken log2 fold change: 0.12

RRIRARPPRLPRPRPRPWAKPRP
shrunken log2 fold change: 0.334

RRIRHRPPRLPRPRPRPMCPPRP
shrunken log2 fold change: -0.0218

RRIRDRPPRLPRPRPRPLRNPRP
shrunken log2 fold change: 0.767

RRIRYRPPRLPRPRPRPWANPRP
shrunken log2 fold change: -0.176

RRIRSRPPRLPRPRPRPPHPPRP
shrunken log2 fold change: 0.325

RRIRWRPPRLPRPRPRPEWAPRP
shrunken log2 fold change: 0.497

RRIRHRPPRLPRPRPRPELVPRP
shrunken log2 fold change: 0.177

RRIRGRPPRLPRPRPRPKPKPRP
shrunken log2 fold change: 0.601

RRIRSRPPRLPRPRPRPVHIPRP
shrunken log2 fold change: -0.124

RRIRVRPPRLPRPRPRPKVMPRP
shrunken log2 fold change: -0.12

RRIRSRPPRLPRPRPRPGHQPRP
shrunken log2 fold change: -0.167

RRIRCRPPRLPRPRPRPHEVPRP
shrunken log2 fold change: 0.104

RRIRIRPPRLPRPRPRPFTVPRP
shrunken log2 fold change: -0.214

RRIRMRPPRLPRPRPRPNCLPRP
shrunken log2 fold change: -0.00154

RRIRVRPPRLPRPRPRPGWPPRP
shrunken log2 fold change: 0.433

RRIRFRPPRLPRPRPRPLKKPRP
shrunken log2 fold change: 0.251

RRIRQRPPRLPRPRPRPNRVPRP
shrunken log2 fold change: -0.107

RRIRGRPPRLPRPRPRPIRFPRP
shrunken log2 fold change: 0.0151

RRIRVRPPRLPRPRPRPQLYPRP
shrunken log2 fold change: -0.137

RRIRARPPRLPRPRPRPHKLPRP
shrunken log2 fold change: 0.214

RRIRARPPRLPRPRPRPQQKPRP
shrunken log2 fold change: 0.153

RRIRIRPPRLPRPRPRPVSMPRP
shrunken log2 fold change: 0.0888

RRIRVRPPRLPRPRPRPPVGPRP
shrunken log2 fold change: 0.375

RRIRQRPPRLPRPRPRPANTPRP
shrunken log2 fold change: -0.118

RRIRSRPPRLPRPRPRPDAAPRP
shrunken log2 fold change: 1.05

RRIRRRPPRLPRPRPRPILCPRP
shrunken log2 fold change: 0.48

RRIRSRPPRLPRPRPRPYQEPRP
shrunken log2 fold change: -0.157

RRIRFRPPRLPRPRPRPIGSPRP
shrunken log2 fold change: -0.241

RRIRSRPPRLPRPRPRPRAWPRP
shrunken log2 fold change: 0.0718

RRIRIRPPRLPRPRPRPCYRPRP
shrunken log2 fold change: -0.44

RRIRCRPPRLPRPRPRPELYPRP
shrunken log2 fold change: 0.221

RRIRCRPPRLPRPRPRPPCGPRP
shrunken log2 fold change: 0.142

RRIRLRPPRLPRPRPRPCEPPRP
shrunken log2 fold change: 0.023

RRIRIRPPRLPRPRPRPMWKPRP
shrunken log2 fold change: -0.0693

RRIRIRPPRLPRPRPRPICHPRP
shrunken log2 fold change: -0.326

RRIRNRPPRLPRPRPRPYGHPRP
shrunken log2 fold change: -0.256

RRIRDRPPRLPRPRPRPWPVPRP
shrunken log2 fold change: 0.531

RRIRYRPPRLPRPRPRPMNPPRP
shrunken log2 fold change: 0.02

RRIRQRPPRLPRPRPRPAVWPRP
shrunken log2 fold change: 0.939

RRIRDRPPRLPRPRPRPREPPRP
shrunken log2 fold change: 0.112

RRIRGRPPRLPRPRPRPPGNPRP
shrunken log2 fold change: 0.432

RRIRERPPRLPRPRPRPCKVPRP
shrunken log2 fold change: -0.00382

RRIRTRPPRLPRPRPRPGNFPRP
shrunken log2 fold change: -0.0548

RRIRGRPPRLPRPRPRPCVAPRP
shrunken log2 fold change: 1.1

RRIRIRPPRLPRPRPRPRPAPRP
shrunken log2 fold change: 0.286

RRIRIRPPRLPRPRPRPCTPPRP
shrunken log2 fold change: -0.719

RRIRARPPRLPRPRPRPTIWPRP
shrunken log2 fold change: 0.206

RRIRDRPPRLPRPRPRPLLGPRP
shrunken log2 fold change: 0.356

RRIRYRPPRLPRPRPRPAHRPRP
shrunken log2 fold change: 0.0479

RRIRSRPPRLPRPRPRPPINPRP
shrunken log2 fold change: -0.32

RRIRGRPPRLPRPRPRPTQWPRP
shrunken log2 fold change: 0.387

RRIRWRPPRLPRPRPRPIMYPRP
shrunken log2 fold change: -0.0994

RRIRFRPPRLPRPRPRPNDFPRP
shrunken log2 fold change: -0.228

RRIRSRPPRLPRPRPRPFDHPRP
shrunken log2 fold change: -0.488

RRIRARPPRLPRPRPRPRIYPRP
shrunken log2 fold change: -0.0488

RRIRERPPRLPRPRPRPRRDPRP
shrunken log2 fold change: 0.0233

RRIRRRPPRLPRPRPRPFECPRP
shrunken log2 fold change: 0.036

RRIRPRPPRLPRPRPRPRRVPRP
shrunken log2 fold change: 0.098

RRIRSRPPRLPRPRPRPYQKPRP
shrunken log2 fold change: -0.122

RRIRERPPRLPRPRPRPEIKPRP
shrunken log2 fold change: -0.0374

RRIRDRPPRLPRPRPRPFCPPRP
shrunken log2 fold change: -0.277

RRIRCRPPRLPRPRPRPIHLPRP
shrunken log2 fold change: -0.193

RRIRPRPPRLPRPRPRPFESPRP
shrunken log2 fold change: 0.17

RRIRWRPPRLPRPRPRPSMIPRP
shrunken log2 fold change: -0.12

RRIRMRPPRLPRPRPRPYIDPRP
shrunken log2 fold change: -0.227

RRIRSRPPRLPRPRPRPKCWPRP
shrunken log2 fold change: 0.359

RRIRQRPPRLPRPRPRPGRFPRP
shrunken log2 fold change: 0.363

RRIRQRPPRLPRPRPRPSELPRP
shrunken log2 fold change: -0.159

RRIRHRPPRLPRPRPRPLQLPRP
shrunken log2 fold change: -0.213

RRIRKRPPRLPRPRPRPETNPRP
shrunken log2 fold change: 2.35

RRIRDRPPRLPRPRPRPFNLPRP
shrunken log2 fold change: -0.176

RRIRNRPPRLPRPRPRPRWCPRP
shrunken log2 fold change: 0.169

RRIRERPPRLPRPRPRPFAWPRP
shrunken log2 fold change: 0.143

RRIRIRPPRLPRPRPRPYCYPRP
shrunken log2 fold change: -0.0959

RRIRGRPPRLPRPRPRPPPQPRP
shrunken log2 fold change: 1.55

RRIRRRPPRLPRPRPRPPVEPRP
shrunken log2 fold change: 0.593

RRIRGRPPRLPRPRPRPELHPRP
shrunken log2 fold change: 1.04

RRIRRRPPRLPRPRPRPFQYPRP
shrunken log2 fold change: -0.0414

RRIRARPPRLPRPRPRPMFIPRP
shrunken log2 fold change: 0.0587

RRIRWRPPRLPRPRPRPNSCPRP
shrunken log2 fold change: 0.0578

RRIRGRPPRLPRPRPRPRGKPRP
shrunken log2 fold change: 0.341

RRIRARPPRLPRPRPRPDKMPRP
shrunken log2 fold change: 0.104

RRIRDRPPRLPRPRPRPERRPRP
shrunken log2 fold change: 0.0137
